Test results as given in patent US20220396822A1, “Method for Measuring Pentosidine and Measurement Kit” (Kikkoman Corporation, priority 2019, published 2022).

Columns and labels:
[1] = Pentosidine quantification test (DA-67/peroxidase, A658); format: biochemical; conditions: 37° C., pH 7.0
Description: The following reagents were prepared, and pentosidine was measured using Bio Majesty JCA-BM1650 (manufactured by JEOL Ltd.).
0.2 μM, 0.4 μM, 0.6 μM, 1.0 μM, 2.0 μM or 4.0 μM pentosidine solution (prepared using the same pentosidine as in Example 2)
120 mM potassium phosphate buffer (pH 7.0)
0.2 mM DA-67 (10-(carboxymethylaminocarbonyl)-3,7-bis(dimethylamino)phenothiazine, sodium salt) (manufactured by FUJIFILM Wako Pure Chemical Corp.)
25 μL of each sample was added to 50 μL of the first reagent, and the mixture was incubated at 37° C. for 5 minutes. Then, 25 μL of the second reagent was added thereto, and pentosidine oxidation reaction mediated by PenOX2 and reaction for the detection of hydrogen peroxide produced through the reaction were allowed to proceed at 37° C. for 5 minutes.
In the reaction for the detection of hydrogen peroxide, DA-67 was oxidized, with concomitant consumption of […], into methylene blue which in turn developed color while absorbance (A658) was elevated. […] Elevation in A658 was able to be confirmed immediately after addition of the second reagent containing PenOX2.
Subsequently, the amount of elevation in A658 (ΔA) caused by the oxidation of pentosidine was calculated according to the following expression.
ΔA=(Absorbance 5 minutes after addition of the second reagent)−(Absorbance immediately before addition of the second reagent×0.75)

[2] = Method for measuring enzymatic activity (pentosidine oxidase activity, A555), Examples 9 and 10; format: biochemical
Description: The amount of the enzyme that produced 1 μmol of hydrogen peroxide per minute at 37° C. was defined as 1 unit (U). The activity was calculated according to the following expression.
Each buffer was prepared as a 50 mM (final concentration) citric acid-100 mM potassium phosphate buffer (pH 4.0 to 7.5), a 100 mM (final concentration) potassium phosphate buffer (pH 6.5 to 8.0), and a 100 mM (final concentration) glycine buffer (pH 8.0 to 11.0). Enzyme reaction was performed at each pH at a temperature of 37° C. using these buffers. […] It was therefore concluded that the optimum pH of PenOX2 is pH 6.5 to 8.0 and is most preferably pH 7.5.
The activity of PenOX2 was measured at varying temperatures using a 50 mM (final concentration) potassium phosphate buffer (pH 7.5). […] It was thus concluded that the range of the optimum temperature of PenOX2 is from 37° C. to 50° C.
As mentioned above, both PenOX1 and PenOX2 had pentosidine oxidase activity. When the percent match between their amino acid sequences was examined using the BLAST program, the amino acid sequence homology therebetween was 38.2%. […] The amino acid sequence homology to PenOX1 and PenOX2 and pentosidine oxidase activity of each enzyme were as follows.

[3] = Heat stability and stable pH of PenOX2 (residual activity); conditions: treated at each temperature for 10 minutes; residual activity at 37° C., pH 7.5; FIG. 9
Description: 600 μL of an arbitrary buffer, 400 μL of a solution of 3.99 U/mL peroxidase, 1.8 mM 4-aminoantipyrine, and 2 mM TOOS dissolved in deionized water, and 150 μL of deionized water were incubated at an arbitrary temperature for 10 minutes. Then, 50 μL of the enzyme liquid preserved on ice and 400 μL of a solution of 2 mM pentosidine dissolved in a 100 mM potassium phosphate buffer (pH 8.0) incubated at an arbitrary temperature for 10 minutes were added thereto, and the mixture was stirred and reacted at an arbitrary temperature for 3 minutes. Time-dependent change in A555 during the reaction was measured in a spectrophotometer (U-3900, manufactured by Hitachi High-Tech Science Corp.). Time elapsed after the start of measurement—amount of change in A555 from 20 seconds to 60 seconds was regarded as an activity value.
The enzyme liquid treated at each temperature for 10 minutes was evaluated for residual activity by performing the activity measurement described above at a temperature of 37° C. using a 100 mM (final concentration) potassium phosphate buffer (final pH at the time of activity measurement: 7.5).

B1: PenOX2: protein having the amino acid sequence of SEQ ID NO: 4, pentosidine oxidase from a filamentous fungus of the genus Sarocladium (protein, listed as Sarocladium sp.)
chain: MFTPKAWIPLLALSREVFSNPTSASHSISFHGLLGVSSESVHNIHLTYGDAFPHGDFRVVFGDCGMTSEDELHHEVASLSTKMESAPDRLVWLVPKDVRENGCLHAFSEGVLLGRSEPVAFTEPLRKRESLSEIGDSDGLWFSGIRYLQSSNLTSVKAAEAKEKKIGIVGGGISGLMTSLLLTSVGMTNWHIIEATERVGGRIRTKYMNGTSPDDYQYQEMGPMRFPVEVKYNDTNETLPIQDHKMVFQLAEVLNEMNGNDTDLAVKFIPWTQNNPNTPANSRGYRLPDGRIPTAAQIAQNPSILPAAANASDPQDAELGKESLERLSDLTPERMRNISANIFKAHRDAIDRGLFHWSEAAYLRYQLGLDDDTVDFVAASDNYPMFPDWWHAVYFAATKWLTIDKGLDSLSRAFVPHVKDKITYGRKIEAMQWNESTSKISLSWRESPLAAAKSDEYDYAVVAVPFSKVRLWKRPAYSNLLTRAIGKLNYEQACKVALLYETRFWEHQEIPIFGGCGSVDIPGIGGVCYPSYEINSTRPGVILSSYITGTEARSVVALSEEDHVAMVQRAMVEVHGPMADEQWTGIYDRLCWEVDENAAGGWASPTVGQQELFIPAYHKTELNTIFIGEHTSITHGWIFSALESSVRGTTQLLLDLGLVDEAKQIVETWMARWITV
For B1, the pentosidine oxidizing activity [1] was “exhibits pentosidine oxidizing activity”, the “temperature at which the highest activity was exhibited” value ([2]; 50 mM potassium phosphate buffer pH 7.5, FIG. 8) was “around 50 °C” and the Km ([2]; 37° C., pH 7.5, Lineweaver-Burk plot, FIG. 11, read-out: Km value for pentosidine (free form)) was 70 µM. For the same molecule, the “pH of highest activity” value ([2]; 37° C., FIG. 7) was 7.5 pH and the “heat stability (stable up to)” value [3] was “around 30 °C”.
